# Patent publication US20090053242A1 (Amgen, published 2009)
# T1: human c-Mpl receptor (TPO receptor), full-length, transfected into IL-3 dependent murine 32D cells (human, UniProt P40238 26-635)
# T1 sequence (looked up): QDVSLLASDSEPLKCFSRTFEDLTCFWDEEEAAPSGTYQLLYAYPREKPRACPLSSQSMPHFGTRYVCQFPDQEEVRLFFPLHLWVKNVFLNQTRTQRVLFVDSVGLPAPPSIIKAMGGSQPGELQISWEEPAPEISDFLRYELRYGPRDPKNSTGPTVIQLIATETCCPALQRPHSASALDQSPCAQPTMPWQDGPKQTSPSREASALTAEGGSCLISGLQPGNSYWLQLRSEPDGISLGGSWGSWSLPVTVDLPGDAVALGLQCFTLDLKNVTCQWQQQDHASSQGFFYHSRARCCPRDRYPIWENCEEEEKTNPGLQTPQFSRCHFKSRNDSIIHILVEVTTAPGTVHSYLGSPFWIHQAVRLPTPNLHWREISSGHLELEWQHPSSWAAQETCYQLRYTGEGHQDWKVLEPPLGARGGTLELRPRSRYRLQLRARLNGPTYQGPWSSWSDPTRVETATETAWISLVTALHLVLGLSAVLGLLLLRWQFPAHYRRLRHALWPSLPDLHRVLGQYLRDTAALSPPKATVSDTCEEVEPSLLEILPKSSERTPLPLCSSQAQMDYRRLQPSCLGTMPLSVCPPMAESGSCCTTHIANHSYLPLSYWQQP
# Target: T1, human c-Mpl receptor (TPO receptor), …
# Experiment: cell-based or functional assay
"potency in TPO-dependent cell-proliferation assay, against the monomer [fold]","activity in cell-proliferation assay, against the GGGG-linked analog [fold less active]","potency in cell-proliferation assay, against the monomer [fold]",Molecule
> 1000,,,IEGPTLRQWLAARAGIEGPTLRQWLAARA [TMP tandem dimer with linker of 1 glycine residue]
> 1000,,,IEGPTLRQWLAARAGGGGGGIEGPTLRQWLAARA [TMP tandem dimer with linker of 6 glycine residues]
> 1000,,,IEGPTLRQWLAARAGGGIEGPTLRQWLAARA [TMP tandem dimer with linker of 3 glycine residues]
,> 10,~100,"IEGPTLRQWLAARAGPNGIEGPTLRQWLAARA [peptide 13, TMP tandem dimer with GPNG linker]"
> 1000,,,IEGPTLRQWLAARAGGGGIEGPTLRQWLAARA [TMP tandem dimer with linker of 4 glycine residues]
> 1000,,,IEGPTLRQWLAARAGGGGGGGIEGPTLRQWLAARA [TMP tandem dimer with linker of 7 glycine residues]
> 1000,,,IEGPTLRQWLAARAGGGGGGGGIEGPTLRQWLAARA [TMP tandem dimer with linker of 8 glycine residues]
> 1000,,,IEGPTLRQWLAARAGGIEGPTLRQWLAARA [TMP tandem dimer with linker of 2 glycine residues]
> 1000,,,IEGPTLRQWLAARAIEGPTLRQWLAARA [TMP tandem dimer without linker (0 glycine residues)]
> 1000,,,IEGPTLRQWLAARAGGGGGIEGPTLRQWLAARA [TMP tandem dimer with linker of 5 glycine residues]

# Target: human c-Mpl receptor (TPO receptor), full-length, transfected into IL-3 dependent murine 32D cells (human) (UniProt P40238)
# Experiment: cell-based or functional assay
row,"potency in TPO-dependent cell-proliferation assay, against the monomer [fold]",Molecule
1,> 1000,TMP tandem dimer with linker of 14 glycine residues (peptide)
2,> 1000,TMP tandem dimer with linker of 9 glycine residues (peptide)
3,> 1000,TMP tandem dimer with linker of 10 glycine residues (peptide)
